Measurements published in paper PMC2706832.

Molecular target: wild-type CCR1 expressed on HEK293 cells (human) (UniProt P32246)
Sequence (P32246 whole entry): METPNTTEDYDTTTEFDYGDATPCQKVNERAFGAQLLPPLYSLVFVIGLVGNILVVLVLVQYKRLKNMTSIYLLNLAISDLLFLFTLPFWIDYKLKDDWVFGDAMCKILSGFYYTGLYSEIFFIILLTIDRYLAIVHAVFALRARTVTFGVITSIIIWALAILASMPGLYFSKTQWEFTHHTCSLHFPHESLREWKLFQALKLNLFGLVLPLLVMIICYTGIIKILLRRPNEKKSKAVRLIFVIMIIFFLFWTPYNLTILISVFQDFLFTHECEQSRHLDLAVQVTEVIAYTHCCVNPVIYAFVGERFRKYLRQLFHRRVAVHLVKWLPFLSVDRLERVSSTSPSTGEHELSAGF

- EC50 for calcium flux in CCR1-transfected HEK293 cells: > 1000 nM
B1: CCL14 full length (1-74) (ligand)
chain: TKTESSSRGPYHPSECCFTYTTYKIPRQRIMDYYETNSQCSKPGIVFITKRGHSVCTNPSDKWVQDYIKDMKEN
